Results: patent US20090099029

Biological target: T1, Bovine, dephosphorylated, Myelin Basic Protein (MBP), P02687
T1 chain: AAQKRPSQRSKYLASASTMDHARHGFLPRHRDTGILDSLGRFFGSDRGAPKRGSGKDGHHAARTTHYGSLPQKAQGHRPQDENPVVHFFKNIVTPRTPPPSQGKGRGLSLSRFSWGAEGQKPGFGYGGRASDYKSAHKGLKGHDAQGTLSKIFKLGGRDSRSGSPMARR

Row | Protein | MBP Kinase Activity
1 | MUSK (protein) CCRRRKQWKNKKRESAAVTLTTLPSELLLDRLHPNPMYQRMPLLLNPKLLSLEYPRNNIEYVRDIGEGAFGRVFQARAPGLLPYEPFTMVAVKMLKEEASADMQADFQREAALMAEFDNPNIVKLLGVCAVGKPMCLLFEYMAYGDLNEFLRSMSPHTVCSLSHSDLSMRAQVSSPGPPPLSCAEQLCIARQVAAGMAYLSERKFVHRDLATRNCLVGENMVVKIADFGLSRNIYSADYYKANENDAIPIRWMPPESIFYNRYTTESDVWAYGVVLWEIFSYGLQPYYGMAHEEVIYYVRDGNILSCPENCPVELYNLMRLCWSKLPADRPSFTSIHRILERMCERAEGTVSV | Negative
2 | PDGFRA (protein) KQKPRYEIRWRVIESISPDGHEYIYVDPMQLPYDSRWEFPRDGLVLGRVLGSGAFGKVVEGTAYGLSRSQPVMKVAVKMLKPTARSSEKQALMSELKIMTHLGPHLNIVNLLGACTKSGPIYIITEYCFYGDLVNYLHKNRDSFLSHHPEKPKKELDIFGLNPADESTRSYVILSFENNGDYMDMKQADTTQYVPMLERKEVSKYSDIQRSLYDRPASYKKKSMLDSEVKNLLSDDNSEGLTLLDLLSFTYQVARGMEFLASKNCVHRDLAARNVLLAQGKIVKICDFGLARDIMHDSNYVSKGSTFLPVKWMAPESIFDNLYTTLSDVWSYGILLWEIFSLGGTPYPGMMVDSTFYNKIKSGYRMAKPDHATSEVYEIMVKCWNSEPEKRPSFYHLSEIVENLLPGQYKKSYEKIHLDFLKSDHPAVARMRVDSDNAYIGVTYKNEEDKLKDWEGGLDEQRLSADSGYIIPLPDIDPVPEEEDLGKRNRHSSQTSEESAIETGSSSSTFIKREDETIEDIDMMDDIGIDSSDLVEDSFL | Strong
3 | PDGFRA, T674I (protein) KQKPRYEIRWRVIESISPDGHEYIYVDPMQLPYDSRWEFPRDGLVLGRVLGSGAFGKVVEGTAYGLSRSQPVMKVAVKMLKPTARSSEKQALMSELKIMTHLGPHLNIVNLLGACTKSGPIYIIIEYCFYGDLVNYLHKNRDSFLSHHPEKPKKELDIFGLNPADESTRSYVILSFENNGDYMDMKQADTTQYVPMLERKEVSKYSDIQRSLYDRPASYKKKSMLDSEVKNLLSDDNSEGLTLLDLLSFTYQVARGMEFLASKNCVHRDLAARNVLLAQGKIVKICDFGLARDIMHDSNYVSKGSTFLPVKWMAPESIFDNLYTTLSDVWSYGILLWEIFSLGGTPYPGMMVDSTFYNKIKSGYRMAKPDHATSEVYEIMVKCWNSEPEKRPSFYHLSEIVENLLPGQYKKSYEKIHLDFLKSDHPAVARMRVDSDNAYIGVTYKNEEDKLKDWEGGLDEQRLSADSGYIIPLPDIDPVPEEEDLGKRNRHSSQTSEESAIETGSSSSTFIKREDETIEDIDMMDDIGIDSSDLVEDSFL | Negative
4 | MET (protein) KKRKQIKDLGSELVRYDARVHTPHLDRLVSARSVSPTTEMVSNESVDYRATFPEDQFPNSSQNGSCRQVQYPLTDMSPILTSGDSDISSPLLQNTVHIDLSALNPELVQAVQHVVIGPSSLIVHFNEVIGRGHFGCVYHGTLLDNDGKKIHCAVKSLNRITDIGEVSQFLTEGIIMKDFSHPNVLSLLGICLRSEGSPLVVLPYMKHGDLRNFIRNETHNPTVKDLIGFGLQVAKGMKYLASKKFVHRDLAARNCMLDEKFTVKVADFGLARDMYDKEYYSVHNKTGAKLPVKWMALESLQTQKFTTKSDVWSFGVLLWELMTRGAPPYPDVNTFDITVYLLQGRRLLQPEYCPDPLYEVMLKCWHPKAEMRPSFSELVSRISAIFSTFIGEHYVHVNATYVNVKCVAPYPSLLSSEDNADDEVDTRPASFWETS | Strong
